T1: VSV Gth, soluble form of the ectodomain of VSV glycoprotein G (residues 1-422) (Vesicular stomatitis virus (Mudd-Summer …, UniProt P0C2X0 17-438))
T1 sequence: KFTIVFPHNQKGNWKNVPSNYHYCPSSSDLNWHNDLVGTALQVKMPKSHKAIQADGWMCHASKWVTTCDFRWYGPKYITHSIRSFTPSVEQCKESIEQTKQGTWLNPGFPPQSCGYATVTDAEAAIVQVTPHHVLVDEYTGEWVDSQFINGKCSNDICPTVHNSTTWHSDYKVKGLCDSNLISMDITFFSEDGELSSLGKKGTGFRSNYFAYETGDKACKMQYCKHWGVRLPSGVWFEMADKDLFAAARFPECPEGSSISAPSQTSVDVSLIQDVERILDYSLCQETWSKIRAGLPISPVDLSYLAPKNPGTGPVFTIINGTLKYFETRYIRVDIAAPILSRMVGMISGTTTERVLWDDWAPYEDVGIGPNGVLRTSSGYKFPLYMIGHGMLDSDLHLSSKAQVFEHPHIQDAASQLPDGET

B1: LDL-R CR2 domain, isolated (GST cleaved off) (domain or fragment)
chain: not shown
notes: also called CR2 monovalent domain; not shown: GST, N-terminal, cleaved
B2: LDL-R CR3 domain, isolated (GST cleaved off) (domain or fragment)
chain: not shown
notes: also called CR3 monovalent domain; not shown: GST, N-terminal, cleaved

Biological target: T1, VSV Gth, soluble form of the ectodomain …
Assay: ITC
Conditions: both partners purified

Binder | Kd | stoichiometry N
B1 | 7.3 µM | 1
B2 | 4.3 µM | 1

Reference: article PMC5847621 (Nature Communications, 2018)
